B1: CAMK2D (parent)
chain: IVRLHDSISEEGFHYLVFDLVTGG

Variants of: B1
Test: protein stability index of a GFP-peptide fusion (GPS, HEK-293T) (PSI 1-6); higher = more stable
Details: c terminus: a fixed tail appended
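Further: lentivirally expressed fusions sorted by FACS into six bins by GFP to DsRed ratio, PSI derived from sequencing read proportions per bin multiplied by bin number.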

Variant	protein stability index
VVRLHDSISEEGFHYLVFDLVTGG [I1V]	2.13
EVRLHDSISEEGFHYLVFDLVTGG [I1E]	2.24
GVRLHDSISEEGFHYLVFDLVTGG [I1G]	1.94
TVRLHDSISEEGFHYLVFDLVTGG [I1T]	2.07
FVRLHDSISEEGFHYLVFDLVTGG [I1F]	1.06
HVRLHDSISEEGFHYLVFDLVTGG [I1H]	3.43
NVRLHDSISEEGFHYLVFDLVTGG [I1N]	1.75
MVRLHDSISEEGFHYLVFDLVTGG [I1M]	3.44
PVRLHDSISEEGFHYLVFDLVTGG [I1P]	1.25
IVRLHDSPSEEGFHYLVFDLVTGG [I8P]	3.04
IVRLHDSASEEGFHYLVFDLVTGG [I8A]	2.21
IVRLHDSGSEEGFHYLVFDLVTGG [I8G]	1.64
IVRLHDSKSEEGFHYLVFDLVTGG [I8K]	2.4
IVRLHDSHSEEGFHYLVFDLVTGG [I8H]	3.29
IVRLHDSSSEEGFHYLVFDLVTGG [I8S]	3.33
IVRLHDSESEEGFHYLVFDLVTGG [I8E]	1.44
IVRLHDSRSEEGFHYLVFDLVTGG [I8R]	1.65
IVRLHDSNSEEGFHYLVFDLVTGG [I8N]	3.02
IVRLHDSYSEEGFHYLVFDLVTGG [I8Y]	3.84
IVRLHDSQSEEGFHYLVFDLVTGG [I8Q]	1.69
IVRLHDSTSEEGFHYLVFDLVTGG [I8T]	2.61
IVRLHDSCSEEGFHYLVFDLVTGG [I8C]	2.85
IVRLHDSILEEGFHYLVFDLVTGG [S9L]	4.27
IVRLHDSIYEEGFHYLVFDLVTGG [S9Y]	3.58

Variant	protein stability index
IVRLHDSIDEEGFHYLVFDLVTGG [S9D]	2.36
IVRLHDSIKEEGFHYLVFDLVTGG [S9K]	2.84
IVRLHDSIEEEGFHYLVFDLVTGG [S9E]	3.35
IVRLHDSINEEGFHYLVFDLVTGG [S9N]	2.94
IVRLHDSIFEEGFHYLVFDLVTGG [S9F]	1.94
IVRLHDSIGEEGFHYLVFDLVTGG [S9G]	1.99
IVRLHDSIQEEGFHYLVFDLVTGG [S9Q]	4.38
IVRLHDSIMEEGFHYLVFDLVTGG [S9M]	3.39
IVRLHDSIPEEGFHYLVFDLVTGG [S9P]	5.65
IVRLHDSISSEGFHYLVFDLVTGG [E10S]	2.15
IVRLHDSISAEGFHYLVFDLVTGG [E10A]	3.84
IVRLHDSISFEGFHYLVFDLVTGG [E10F]	2.4
IVRLHDSISTEGFHYLVFDLVTGG [E10T]	3.29
IVRLHDSISREGFHYLVFDLVTGG [E10R]	2.65
IVRLHDSISHEGFHYLVFDLVTGG [E10H]	3.04
IVRLHDSISMEGFHYLVFDLVTGG [E10M]	2.53
IVRLHDSISNEGFHYLVFDLVTGG [E10N]	4.11
IVRLHDSISYEGFHYLVFDLVTGG [E10Y]	2.83
IVRLHDSISIEGFHYLVFDLVTGG [E10I]	3.06
IVRLHDSISKEGFHYLVFDLVTGG [E10K]	2.7
IVYLHDSISEEGFHYLVFDLVTGG [R3Y]	2.58
IVQLHDSISEEGFHYLVFDLVTGG [R3Q]	2
IVCLHDSISEEGFHYLVFDLVTGG [R3C]	2.03

Source: the supplement of paper PMC10567573
